Here are results for one molecule from paper PMC13696528 (2026).

The target in the test is PD-L1 (UniProt Q9NZQ7). The test is described as follows: SPR. (In general: Surface plasmon resonance follows binding to a sensor surface in real time, without labels.)

A word on the Kd: it is a measure of binding affinity in units of concentration.

No end group written: not given here.

Chain of PD-L1 (Q9NZQ7 19-238): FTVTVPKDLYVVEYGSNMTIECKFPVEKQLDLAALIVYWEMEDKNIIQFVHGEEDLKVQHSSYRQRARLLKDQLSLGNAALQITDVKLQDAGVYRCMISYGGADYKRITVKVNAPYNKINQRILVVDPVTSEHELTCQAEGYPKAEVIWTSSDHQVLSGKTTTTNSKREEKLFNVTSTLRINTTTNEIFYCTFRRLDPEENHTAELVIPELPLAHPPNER

The molecule NTGYFYGDQ (also: co-assembled nanofiber with IR-CF3) [PSP (PSP@IR-CF3 nanofiber)] displayed a Kd of 27.8 nM.
